Blank lines part the entries; values can stand above or below the binder they belong to.
Experiments:
4H717-bA = biological target: T1, 4H717-bA; experiment: two-hybrid library CCNG1;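 also: natural log of median RNA to DNA barcode read ratio; higher means stronger binding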
T1 chain: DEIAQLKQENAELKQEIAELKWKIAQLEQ

4H967-bA = biological target: T2, 4H967-bA; experiment: two-hybrid library CCNG1;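 also: natural log of median RNA to DNA barcode read ratio; higher means stronger binding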
T2 chain: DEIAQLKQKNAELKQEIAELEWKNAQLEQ

4H3427-bA = biological target: T3, 4H3427-bA; experiment: two-hybrid library CCNG1;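 also: natural log of median RNA to DNA barcode read ratio; higher means stronger binding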
T3 chain: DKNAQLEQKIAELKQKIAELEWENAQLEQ

4H1446-bA = biological target: T4, 4H1446-bA; experiment: two-hybrid library CCNG1;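 also: natural log of median RNA to DNA barcode read ratio; higher means stronger binding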
T4 chain: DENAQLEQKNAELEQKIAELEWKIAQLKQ

4H953-bN = biological target: T5, 4H953-bN; experiment: two-hybrid library CCNG1;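 also: natural log of median RNA to DNA barcode read ratio; higher means stronger binding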
T5 chain: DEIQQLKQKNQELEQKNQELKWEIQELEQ

4H883-bA = biological target: T6, 4H883-bA; experiment: two-hybrid library CCNG1;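 also: natural log of median RNA to DNA barcode read ratio; higher means stronger binding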
T6 chain: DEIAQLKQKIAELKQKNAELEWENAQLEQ

4H2667-bA = biological target: T7, 4H2667-bA; experiment: two-hybrid library CCNG1
T7 chain: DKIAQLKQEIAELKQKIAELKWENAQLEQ

4H918-bA = biological target: T8, 4H918-bA; experiment: two-hybrid library CCNG1
T8 chain: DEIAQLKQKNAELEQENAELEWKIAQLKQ

4H2618-bA = biological target: T9, 4H2618-bA; experiment: two-hybrid library CCNG1
T9 chain: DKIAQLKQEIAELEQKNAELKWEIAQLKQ

4H2576-bA = biological target: T10, 4H2576-bA; experiment: two-hybrid library CCNG1
T10 chain: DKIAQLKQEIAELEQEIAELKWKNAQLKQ

4H72-bA = biological target: T11, 4H72-bA; experiment: two-hybrid library CCNG1
T11 chain: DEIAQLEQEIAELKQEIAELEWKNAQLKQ

4H3782-bA = biological target: T12, 4H3782-bA; experiment: two-hybrid library CCNG1
T12 chain: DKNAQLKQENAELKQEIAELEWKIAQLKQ

4H2729-bA = biological target: T13, 4H2729-bA; experiment: two-hybrid library CCNG1
T13 chain: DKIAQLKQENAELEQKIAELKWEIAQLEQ

4H908-bA = biological target: T14, 4H908-bA; experiment: two-hybrid library CCNG1
T14 chain: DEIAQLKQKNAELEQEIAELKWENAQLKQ

4H1257-bA = biological target: T15, 4H1257-bA; experiment: two-hybrid library CCNG1
T15 chain: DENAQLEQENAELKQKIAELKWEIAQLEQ

4H2442-bA = biological target: T16, 4H2442-bA; experiment: two-hybrid library CCNG1
T16 chain: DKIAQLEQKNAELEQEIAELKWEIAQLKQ

4H1845-bA = biological target: T17, 4H1845-bA; experiment: two-hybrid library CCNG1
T17 chain: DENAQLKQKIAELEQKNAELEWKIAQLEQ

4H953-bA = biological target: T18, 4H953-bA; experiment: two-hybrid library CCNG1
T18 chain: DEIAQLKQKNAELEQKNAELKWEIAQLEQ

4H454-bA = biological target: T19, 4H454-bA; experiment: two-hybrid library CCNG1
T19 chain: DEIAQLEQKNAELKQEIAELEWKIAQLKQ

4H3185-bA = biological target: T20, 4H3185-bA; experiment: two-hybrid library CCNG1
T20 chain: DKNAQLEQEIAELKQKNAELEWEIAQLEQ

O2-bA = biological target: T21, O2-bA; experiment: two-hybrid library CCNG1
T21 chain: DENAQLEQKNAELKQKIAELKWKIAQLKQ

4H3855-bA = biological target: T22, 4H3855-bA; experiment: two-hybrid library CCNG1
T22 chain: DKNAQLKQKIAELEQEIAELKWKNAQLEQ

4H4001-bA = biological target: T23, 4H4001-bA; experiment: two-hybrid library CCNG1
T23 chain: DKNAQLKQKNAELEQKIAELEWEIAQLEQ

4H331-bA = biological target: T24, 4H331-bA; experiment: two-hybrid library CCNG1
T24 chain: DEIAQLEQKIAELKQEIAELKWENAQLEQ

4H3112-bA = biological target: T25, 4H3112-bA; experiment: two-hybrid library CCNG1
T25 chain: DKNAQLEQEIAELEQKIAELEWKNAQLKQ

4H797-bA = biological target: T26, 4H797-bA; experiment: two-hybrid library CCNG1
T26 chain: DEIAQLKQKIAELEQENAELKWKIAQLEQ

4H687-bA = biological target: T27, 4H687-bA; experiment: two-hybrid library CCNG1
T27 chain: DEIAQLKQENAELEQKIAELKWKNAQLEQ

4H1828-bA = biological target: T28, 4H1828-bA; experiment: two-hybrid library CCNG1
T28 chain: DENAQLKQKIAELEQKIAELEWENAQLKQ

4H754-bA = biological target: T29, 4H754-bA; experiment: two-hybrid library CCNG1
T29 chain: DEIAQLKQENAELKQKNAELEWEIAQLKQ

4H607-bA = biological target: T30, 4H607-bA; experiment: two-hybrid library CCNG1
T30 chain: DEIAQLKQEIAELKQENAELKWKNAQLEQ

4H568-bA = biological target: T31, 4H568-bA; experiment: two-hybrid library CCNG1
T31 chain: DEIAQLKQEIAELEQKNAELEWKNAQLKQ

4H3354-bA = biological target: T32, 4H3354-bA; experiment: two-hybrid library CCNG1
T32 chain: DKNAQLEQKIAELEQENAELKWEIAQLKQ

4H338-bA = biological target: T33, 4H338-bA; experiment: two-hybrid library CCNG1
T33 chain: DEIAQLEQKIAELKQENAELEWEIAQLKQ

P4SC2 [1] = biological target: T34, P4SC2; experiment: two-hybrid library CCmax; details: mean of both orientations
T34 chain: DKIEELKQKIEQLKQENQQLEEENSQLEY

P4SC2 [2] = biological target: T34, P4SC2; experiment: two-hybrid library CCNG1
4H1198-AA = biological target: T35, 4H1198-AA; experiment: two-hybrid library CCmax; details: mean of both orientations
T35 chain: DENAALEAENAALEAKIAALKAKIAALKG

4H3605-AA = biological target: T36, 4H3605-AA; experiment: two-hybrid library CCmax; details: mean of both orientations
T36 chain: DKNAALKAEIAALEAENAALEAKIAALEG

4H481-AA = biological target: T37, 4H481-AA; experiment: two-hybrid library CCmax; details: mean of both orientations
T37 chain: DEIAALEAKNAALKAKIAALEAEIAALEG

4H2211-AA = biological target: T38, 4H2211-AA; experiment: two-hybrid library CCmax; details: mean of both orientations
T38 chain: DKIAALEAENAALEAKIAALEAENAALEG

4H3922-AA = biological target: T39, 4H3922-AA; experiment: two-hybrid library CCmax; details: mean of both orientations
T39 chain: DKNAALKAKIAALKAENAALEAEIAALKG

4H1017-AA = biological target: T40, 4H1017-AA; experiment: two-hybrid library CCmax
T40 chain: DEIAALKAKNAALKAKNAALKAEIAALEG

4H55-AA = biological target: T41, 4H55-AA; experiment: two-hybrid library CCmax; details: mean of both orientations
T41 chain: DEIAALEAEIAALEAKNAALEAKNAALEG

4H2935-AA = biological target: T42, 4H2935-AA; experiment: two-hybrid library CCmax; details: mean of both orientations
T42 chain: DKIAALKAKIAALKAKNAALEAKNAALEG

4H2536-AA = biological target: T43, 4H2536-AA; experiment: two-hybrid library CCmax; details: mean of both orientations
T43 chain: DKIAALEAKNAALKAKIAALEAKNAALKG

4H4033-AA = biological target: T44, 4H4033-AA; experiment: two-hybrid library CCmax; details: mean of both orientations
T44 chain: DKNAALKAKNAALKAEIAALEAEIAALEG

4H1405-AA = biological target: T45, 4H1405-AA; experiment: two-hybrid library CCmax; details: mean of both orientations
T45 chain: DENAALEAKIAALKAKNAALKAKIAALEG

4H2513-AA = biological target: T46, 4H2513-AA; experiment: two-hybrid library CCmax; details: mean of both orientations
T46 chain: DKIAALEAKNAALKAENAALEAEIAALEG

4H1103-AA = biological target: T47, 4H1103-AA; experiment: two-hybrid library CCmax; details: mean of both orientations
T47 chain: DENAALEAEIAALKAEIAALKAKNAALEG

4H3664-AA = biological target: T48, 4H3664-AA; experiment: two-hybrid library CCmax; details: mean of both orientations
T48 chain: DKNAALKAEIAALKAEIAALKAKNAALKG

4H327-AA = biological target: T49, 4H327-AA; experiment: two-hybrid library CCmax; details: mean of both orientations
T49 chain: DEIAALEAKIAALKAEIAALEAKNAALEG

4H2238-AA = biological target: T50, 4H2238-AA; experiment: two-hybrid library CCmax; details: mean of both orientations
T50 chain: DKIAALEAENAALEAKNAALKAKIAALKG

4H1082-AA = biological target: T51, 4H1082-AA; experiment: two-hybrid library CCmax
T51 chain: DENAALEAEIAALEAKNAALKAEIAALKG

4H662-AA = biological target: T52, 4H662-AA; experiment: two-hybrid library CCmax; details: mean of both orientations
T52 chain: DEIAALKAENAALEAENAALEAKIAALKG

4H369-AA = biological target: T53, 4H369-AA; experiment: two-hybrid library CCmax; details: mean of both orientations
T53 chain: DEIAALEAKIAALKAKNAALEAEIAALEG

4H2726-AA = biological target: T54, 4H2726-AA; experiment: two-hybrid library CCmax; details: mean of both orientations
T54 chain: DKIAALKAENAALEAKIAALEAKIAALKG

4H3625-AA = biological target: T55, 4H3625-AA; experiment: two-hybrid library CCmax; details: mean of both orientations
T55 chain: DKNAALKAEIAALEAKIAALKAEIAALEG

4H1350-AA = biological target: T56, 4H1350-AA; experiment: two-hybrid library CCmax; details: mean of both orientations
T56 chain: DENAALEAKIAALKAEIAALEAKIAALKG

4H2608-AA = biological target: T57, 4H2608-AA; experiment: two-hybrid library CCmax; details: mean of both orientations
T57 chain: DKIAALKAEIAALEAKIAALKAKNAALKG

4H2614-AA = biological target: T58, 4H2614-AA; experiment: two-hybrid library CCmax; details: mean of both orientations
T58 chain: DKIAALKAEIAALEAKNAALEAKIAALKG

Core_IIIN-es_KKKK = biological target: T59, Core_IIIN-es_KKKK; experiment: two-hybrid library CCmax; details: mean of both orientations
T59 chain: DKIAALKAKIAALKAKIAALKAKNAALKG

Core_INII-es_KEEK = biological target: T60, Core_INII-es_KEEK; experiment: two-hybrid library CCmax; details: mean of both orientations
T60 chain: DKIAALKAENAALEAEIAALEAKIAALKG

Binder: DEIQQLEEEIRQLEQKNSQLKEKNQQLKY [P3SC2]
interaction score (P4SC2 [1]): 0.206 | interaction score (P4SC2 [2]): 1.12

Binder: DEIAALKAKNAALKAKNAALKAEIAALEG [4H1017-AA]
interaction score (4H1198-AA): 0.565 | interaction score (4H3605-AA): 0.203 | interaction score (4H481-AA): -1.63 | interaction score (4H2211-AA): -1.35 | interaction score (4H3922-AA): -0.887 | interaction score (4H1017-AA): -1.79 | interaction score (4H55-AA): -1.6 | interaction score (4H2935-AA): -3.83 | interaction score (4H2536-AA): -1.48 | interaction score (4H4033-AA): -2.3 | interaction score (4H1405-AA): -1.79 | interaction score (4H2513-AA): -1.22 | interaction score (4H1103-AA): -1.61 | interaction score (4H3664-AA): -1.53 | interaction score (4H327-AA): -1.46 | interaction score (4H2238-AA): 1.64 | interaction score (4H1082-AA): -2.19 | interaction score (4H662-AA): 2.48 | interaction score (4H369-AA): -1.44 | interaction score (4H2726-AA): 0.98 | interaction score (4H3625-AA): -1.94 | interaction score (4H1350-AA): -1.39 | interaction score (4H2608-AA): -1.64 | interaction score (4H2614-AA): 0.0732

Binder: DEIAALEAKNAALKAKIAALKAEIAALEG [Core_INII-es_EKKE]
interaction score (Core_INII-es_KEEK): 2.32

Continued, values first:

interaction score (4H717-bA): -0.0683 | interaction score (4H967-bA): -1.12 | interaction score (4H3427-bA): -0.869 | interaction score (4H1446-bA): -0.55 | interaction score (4H953-bN): -2.6 | interaction score (4H883-bA): -1.18 | interaction score (4H2667-bA): -0.847 | interaction score (4H918-bA): -0.431 | interaction score (4H2618-bA): -0.882 | interaction score (4H2576-bA): 0.908 | interaction score (4H72-bA): -1.15 | interaction score (4H3782-bA): 2.01 | interaction score (4H2729-bA): -0.154 | interaction score (4H908-bA): -1.38 | interaction score (4H1257-bA): -0.0608 | interaction score (4H2442-bA): -0.983 | interaction score (4H1845-bA): -0.799 | interaction score (4H953-bA): -1.53 | interaction score (4H454-bA): 1.77 | interaction score (4H3185-bA): -1.37 | interaction score (O2-bA): -1.33 | interaction score (4H3855-bA): -0.705 | interaction score (4H4001-bA): -0.102 | interaction score (4H331-bA): -0.712 | interaction score (4H3112-bA): -0.693 | interaction score (4H797-bA): -0.933 | interaction score (4H687-bA): -0.935 | interaction score (4H1828-bA): -0.782 | interaction score (4H754-bA): -1.15 | interaction score (4H607-bA): -1.24 | interaction score (4H568-bA): -1.75 | interaction score (4H3354-bA): -0.884 | interaction score (4H338-bA): -1.24
Binder: DENAQLEQENAELKQKIAELKWEIAQLEQ [4H1257-bA]

interaction score (Core_IIIN-es_KKKK): 1.39
Binder: DEIAALEAEIAALEAEIAALEAENAALEG [Core_IIIN-es_EEEE]
